Reference: patent US20220098295A1 (ALLERGAN, published 2022)
Positions count from the first letter of the chain named.

B1: P36F3 (bispecific antibody, part only; not given: linker, domain order, Fc, V domains shown, not shown: another chain or arm of the molecule; a dimerising Fc or GST; small tags and cut ends)
VH 1: QVQLVESGGGLVQPGGSLRLSCAASGFTFSSYWMHWVRQAPGKGLVWVSRINSDGSSTSYADSVKGRFTISRDNAKNTLYLQMNSLRAEDTAVYYCAKDKGITMVRGVIHFDYWGQGTLVTVSS
VH 2: QVQLVESGGGLVQPGGSLRLSCAASGFTFSSYWMHWVRQAPGKGLVWVSRINSDGSSTSYADSVKGRFTISRDNAKNTLYLQMNSLRAEDTAVYYCAREGYSSGGQFDYWGQGTLVTVSS
B2: anti-PDGF BB HCAb P36F3 (antibody, IgG1, V domains shown)
VH: B1 VH 1
notes: Heavy chain only antibody, no light chain; VH fused to IgG1 hinge and CH2/CH3; not shown: human IgG1 hinge region and CH2/CH3 regions (no CH1)
B3: anti-PDGF BB HCAb P36E10 (antibody, IgG1, V domains shown)
VH: QVQLLESGGGLVQPGGSLRLSCAASGFTFSSYAMSWVRQAPGKGLEWVSAISGSGGSTYYADSVKGRFTISRDNSKNTLYLQMNSLRAEDTAVYYCASNSGFFTLSGFIRYKFWGQGTLVTVSS
notes: as for B2
B4: anti-PDGF BB HCAb P36A4 (antibody, IgG1, V domains shown)
VH: B3 VH with A23P, S98R, S100N, F102I, T104M, L105F, S106R, F108V, F113S
notes: as for B2
B5: anti-PDGF BB HCAb P36E8 (antibody, IgG1, V domains shown)
VH: B3 VH with G101E, F102L, T104K, L105V, S106N, F108V, K112D
notes: as for B2
B6: anti-PDGF BB HCAb P36A3 (antibody, V domains shown)
VH: B3 VH with G101V, F103S, S106K, I109L, R110Q
notes: Heavy chain only antibody, no light chain; VH fused to IgG1 hinge and CH2/CH3 and made in CHO cells as fully human recombinant HCAb; It was captured by anti-human IgG Fc in the SPR assay; not shown: human IgG1 hinge region and CH2/CH3 regions (no CH1)
B7: anti-PDGF BB HCAb P36C12 (antibody, IgG1, V domains shown)
VH: B3 VH with S98R, G101E, F102I, T104M, L105V, S106K, F108V, R110Q, K112N, F113S
notes: Heavy chain only antibody, no light chain; VH fused to IgG1 hinge and CH2/CH3; It is printed in places as P36012, which looks like a misprint of P36C12; also called P36012; not shown: human IgG1 hinge region and CH2/CH3 regions (no CH1)

Columns and labels:
[1] = target: T1, human PDGF-BB (R&D system, 220-BB) (human, UniProt P01127 82-190, biotinylated in the blocking ELISA of Example 4 (sites not given); unlabelled in the SPR assay); assay: Real-time sensorgram with response in nm (assay not given). Sample 'P36F3', association with rhPDGF BB at 25 - 500 nM. The column is headed kdis(1/s).
T1 construct: Bought protein (R&D Systems), a homodimer of two B subunits; also called human biotinylated PDGF-BB
T1 sequence (P01127 82-190 limits assumed): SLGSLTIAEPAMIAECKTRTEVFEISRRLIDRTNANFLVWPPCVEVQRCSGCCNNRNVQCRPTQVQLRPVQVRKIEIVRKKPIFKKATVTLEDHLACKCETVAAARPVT

[2] = target: T1, human PDGF-BB (R&D system, 220-BB); assay: Real-time sensorgram with response in nm (assay not given). Sample 'P36F3', association with rhPDGF BB at 25 - 500 nM.
[3] = target: T1, human PDGF-BB (R&D system, 220-BB); assay: SPR (Biacore T200, 25 C), HCAb captured by anti-human IgG Fc, PDGF-BB 0.625-10 nM as analyte, 1:1 model
Experimental: (§1) Anti-human IgG Fc antibody was directly immobilized across CM5 biosensor chip (GE Healthcare) using a standard coupling kit (GE Healthcare, BR-1008-39) according to the manufacturer's instructions. Purified anti-PDGF-BB HCAb molecules were diluted in running buffer HBS-EPB (GE Healthcare, BR-1006-69) at 0.5 to 1.0 μg/ml and captured on the coupled across anti-human IgG Fc surface. A 2-fold serial dilution of human PDGF-BB (R&D system, 220-BB) range from 0.625 to 10 nM were injected over anti-PDGF-BB HCAb captured surface at a flow rate of 30 μl/min. Associating rates (Ka) and dissociation rates (Kd) were calculated based on 1:1 Langmuir binding model with BIAcore T200 evaluation software version 2.0 (GE Healthcare). The equilibrium dissociation constant (Kd) was determined by the ratio Koff/Kon.

[4] = target: T1, human PDGF-BB (R&D system, 220-BB); assay: SPR (Biacore T200, 25 C), HCAb captured by anti-human IgG Fc, PDGF-BB as analyte
Experimental: as §1

[5] = target: T1, human PDGF-BB (R&D system, 220-BB); assay: blocking ELISA: HCAb dilutions with 2 nM biotinylated PDGF-BB, binding to coated PDGFRβ-Fc
Experimental: Two micrograms per milliliter per well of PDGFRβ-Fc (R & D Systems) was coated on 96 well microtiter plates overnight at 4° C. In a separate plate, serial dilutions of anti-PDGF BB HCAb were incubated with 2 nM human biotinylated PDGF-BB (R&D Systems) for 1 hr. One hundred microliters of the anti-PDGF BB HCAb-PDGF-BB mix were applied to the PDGFRβ-Fc-coated microtiter plate for 1 hr. The detection antibody (anti-biotin HRP) was then added for 1 hr and the ELISA was developed with a chemiluminescent HRP substrate and read by an ELISA plate reader. Anti-PDGF BB HCAb blocked the binding of PDGF-BB to its receptor PDGFRβ and IC₅₀ of anti-PDGF BB HCAb blocking to PDGFRβ is summarized in Table 4.

[6] = target: T1, human PDGF-BB (R&D system, 220-BB); assay: SPR (Biacore T200, 25 C), HCAb captured by anti-human IgG Fc, PDGF-BB as analyte; * over the limit of detection
Experimental: as §1

Binder	koff [1] [s⁻¹]	Kd [2] [nM]	kon [2] [M⁻¹ s⁻¹]	kon [3] [M⁻¹ s⁻¹]	Kd [4] [nM]	koff [4] [s⁻¹]	IC50 [5] [nM]	Kd [6] [nM]	koff [6] [s⁻¹]
B1	1.1e-06	0.0434	25300						
B2				988000	0.00883	8.73e-06	1.71		
B3				42100	0.455	1.92e-05	21.4		
B4				654000	0.00179	1.17e-06	3.77		
B5				243000			5.52	< 0.00412	< 1e-06
B6				219000			7.75	< 0.00457	< 1e-06
B7				1e+06			1.07	< 0.001	< 1e-06
